For this experiment, the target named is Cry1Da receptor protein(s) / binding site in Spodoptera frugiperda (fall armyworm) brush border membrane vesicles (Spodoptera frugiperda). In words: homologous competition: displacement of 0.5 nM 125I-Cry1Da core toxin from 150 ug/mL S. frugiperda BBMV.

“Cry1Da core toxin protein (non-radiolabeled) (from UniProt P19415 28-594)” showed an IC50 of 5 nM.

In general, IC50 refers to the concentration at which inhibition is half-maximal. A higher IC50 goes with lower potency.

The values are drawn from patent US20120331589A1.
